Source: patent US20110230416A1

Target: hLDLR of non-genetically modified human cells (human fibroblasts, HUVEC) (human), P01130
Experiment: FACS on HUVEC

hLDLR of non-genetically modified human cells (human fibroblasts, HUVEC) (human), P01130, sequence (P01130 22-860): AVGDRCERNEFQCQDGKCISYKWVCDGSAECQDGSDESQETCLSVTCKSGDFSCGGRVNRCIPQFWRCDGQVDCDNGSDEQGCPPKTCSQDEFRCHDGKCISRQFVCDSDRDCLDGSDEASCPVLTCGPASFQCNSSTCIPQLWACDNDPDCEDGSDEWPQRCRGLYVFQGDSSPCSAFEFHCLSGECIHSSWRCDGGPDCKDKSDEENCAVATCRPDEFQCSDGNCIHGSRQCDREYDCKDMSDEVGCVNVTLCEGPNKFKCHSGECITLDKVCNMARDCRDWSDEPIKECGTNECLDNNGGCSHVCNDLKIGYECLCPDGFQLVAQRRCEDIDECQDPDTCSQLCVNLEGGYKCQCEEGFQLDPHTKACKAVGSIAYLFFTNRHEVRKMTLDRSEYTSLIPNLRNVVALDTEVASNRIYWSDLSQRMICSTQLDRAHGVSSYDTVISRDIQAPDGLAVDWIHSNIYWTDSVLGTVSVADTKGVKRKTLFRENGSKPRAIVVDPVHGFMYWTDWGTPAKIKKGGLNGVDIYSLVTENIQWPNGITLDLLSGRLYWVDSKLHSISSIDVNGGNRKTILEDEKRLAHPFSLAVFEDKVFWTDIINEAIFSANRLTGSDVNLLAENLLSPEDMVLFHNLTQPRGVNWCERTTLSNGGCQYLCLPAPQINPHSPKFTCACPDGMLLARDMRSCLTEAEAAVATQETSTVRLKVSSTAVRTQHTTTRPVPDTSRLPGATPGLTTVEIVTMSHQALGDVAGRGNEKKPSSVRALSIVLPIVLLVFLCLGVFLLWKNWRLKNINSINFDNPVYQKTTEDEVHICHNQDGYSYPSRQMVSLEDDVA

| Binder | percentage of shift of the fluorescence signal in zone Q2 [%] |
| --- | --- |
| DSGLCMPRLRGCDPR (modifications not checked) [bacterial virus clone expressing cyclic peptide SEQ ID NO: 11] | > 70 |
| TPSAHAMALQSLSVG (modifications not checked) [bacterial virus clone expressing linear peptide SEQ ID NO: 21] | > 55.8 |
